Data published in publication PMC8744557, “Engineering the Catalytic Properties of Two-Domain Laccase from Streptomyces griseoflavus Ac-993” (International Journal of Molecular Sciences, 2021).
Residue numbers refer to the chain shown, from its start. Numbers in names are those of the source.

Legend:
purified protein [1] = substrate: CCn1c(=NN=c2sc3cc(S(=O)(=O)O)ccc3n2CC)sc2cc(S(=O)(=O)O)ccc21; assay: purified protein; format: biochemical, Streptomyces griseoflavus; details: 50 mM Britton-Robinson buffer, O2 co-substrate
purified protein [2] = substrate: COc1cccc(OC)c1O; assay: purified protein; format: biochemical, Streptomyces griseoflavus; details: 50 mM Britton-Robinson buffer, O2 co-substrate

B1: SgfSL (SgfSLwt) (Streptomyces griseoflavus) (protein)
chain: AGAAPAGGEVRRVTMYAERLAGGQMGYGLEKGKASIPGPLIELNEGDTLHVEFENTMDVPVSLHVHGLDYEISSDGTKQNKSHVEPGGTRTYTWRTHEPGRRADGTWRAGSAGYWHYHDHVVGTEHGTGGIRNGLYGPVIVRRKGDVLPDATHTIVFNDMTINNRPAHTGPNFEATVGDRVEIVMITHGEYYHTFHMHGHRWADNRTGMLTGPDDPSQVIDNKICGPADSFGFQIIAGEGVGAGAWMYHCHVQSHSDMGMVGLFLVKKPDGTIPGYDPQEHAH
notes: pET32-Xa/Lic, thioredoxin/His tail cut with factor Xa; E. coli BL21(DE3)/Rosetta; homotrimer; primers encode N-terminus AGAAPAGG and C-terminus PQEHAH
B1 was tested, and the Km (purified protein [1]; pH 4.0, 30 °C) was 360 ± 70 µM, the kcat (purified protein [1]; pH 4.0, 30 °C) was 15 ± 1 s⁻¹ and the kcat/Km (purified protein [1]; pH 4.0, 30 °C) was 42000 M⁻¹ s⁻¹. The Km (purified protein [2]; pH 9.0, 30 °C) was 320 ± 80 µM, the kcat (purified protein [2]; pH 9.0, 30 °C) was 0.35 ± 0.02 s⁻¹ and the kcat/Km (purified protein [2]; pH 9.0, 30 °C) was 1090 M⁻¹ s⁻¹.

B2: SgfSL (SgfSLwt) (Streptomyces griseoflavus; M199A) (protein)
chain: B1 chain with M160A
notes: as for B1
B2 showed a Km (purified protein [1]; pH 4.0, 30 °C) of 320 ± 50 µM, a kcat (purified protein [1]; pH 4.0, 30 °C) of 33 ± 2 s⁻¹ and a kcat/Km (purified protein [1]; pH 4.0, 30 °C) of 102000 M⁻¹ s⁻¹. The Km (purified protein [2]; pH 8.0, 30 °C) was 830 ± 80 µM, the kcat (purified protein [2]; pH 8.0, 30 °C) was 1.3 ± 0.05 s⁻¹ and the kcat/Km (purified protein [2]; pH 8.0, 30 °C) was 1550 M⁻¹ s⁻¹.

B3: SgfSL (SgfSLwt) (Streptomyces griseoflavus; H165A/M199G) (protein)
chain: B1 chain with H126A, M160G
notes: as for B1
In the case of B3, the Km (purified protein [1]; pH 3.5, 30 °C) is reported as 90 ± 10 µM, the kcat (purified protein [1]; pH 3.5, 30 °C) is reported as 9 s⁻¹ and the kcat/Km (purified protein [1]; pH 3.5, 30 °C) is reported as 95000 M⁻¹ s⁻¹. It also gave a Km (purified protein [2]; pH 6.5, 30 °C) of 280 ± 50 µM, a kcat (purified protein [2]; pH 6.5, 30 °C) of 0.31 ± 0.01 s⁻¹ and a kcat/Km (purified protein [2]; pH 6.5, 30 °C) of 1110 M⁻¹ s⁻¹.

B4: SgfSL (SgfSLwt) (Streptomyces griseoflavus; Y230A) (protein)
chain: B1 chain with Y191A
notes: as for B1
With B4 the Km (purified protein [1]; pH 3.5, 30 °C) was 170 ± 40 µM, the kcat (purified protein [1]; pH 3.5, 30 °C) was 29 ± 3 s⁻¹ and the kcat/Km (purified protein [1]; pH 3.5, 30 °C) was 169000 M⁻¹ s⁻¹. It also gave a Km (purified protein [2]; pH 8.5, 30 °C) of 760 ± 30 µM, a kcat (purified protein [2]; pH 8.5, 30 °C) of 1.68 ± 0.07 s⁻¹ and a kcat/Km (purified protein [2]; pH 8.5, 30 °C) of 2220 M⁻¹ s⁻¹.

B5: SgfSL (SgfSLwt) (Streptomyces griseoflavus; M199G/R240H) (protein)
chain: B1 chain with M160G, R201H
notes: as for B1
Protein B5 has a Km (purified protein [1]; pH 3.5, 30 °C) of 100 ± 15 µM, a kcat (purified protein [1]; pH 3.5, 30 °C) of 20 ± 1 s⁻¹ and a kcat/Km (purified protein [1]; pH 3.5, 30 °C) of 203000 M⁻¹ s⁻¹. The Km (purified protein [2]; pH 8.5, 30 °C) was 250 ± 20 µM, the kcat (purified protein [2]; pH 8.5, 30 °C) was 4.18 ± 0.09 s⁻¹ and the kcat/Km (purified protein [2]; pH 8.5, 30 °C) was 16500 M⁻¹ s⁻¹.

B6: SgfSL (SgfSLwt) (Streptomyces griseoflavus; M199G) (protein)
chain: B1 chain with M160G
notes: as for B1
In the case of B6, the Km (purified protein [1]; pH 4.0, 30 °C) is reported as 200 ± 60 µM, the kcat (purified protein [1]; pH 4.0, 30 °C) is reported as 45 ± 7 s⁻¹ and the kcat/Km (purified protein [1]; pH 4.0, 30 °C) is reported as 226000 M⁻¹ s⁻¹. For the same protein, the Km (purified protein [2]; pH 8.0, 30 °C) was 670 ± 120 µM, the kcat (purified protein [2]; pH 8.0, 30 °C) was 3.39 ± 0.17 s⁻¹ and the kcat/Km (purified protein [2]; pH 8.0, 30 °C) was 5070 M⁻¹ s⁻¹.
